Reference: the supplement of paper PMC11246515
± gives the standard deviation of the averaged measurements.

Assay: total protein half-life in vivo (active degradation + dilution); higher = more stable protein
[1] = E. coli NCM3722 delta-clpP delta-lon delta-hslV, growth: N-lim chemostat, doubling time 6 h
[2] = E. coli NCM3722 delta-clpP, growth: N-lim chemostat, doubling time 6 h
[3] = E. coli NCM3722 delta-hslV, growth: N-lim chemostat, doubling time 6 h
[4] = E. coli NCM3722 delta-lon, growth: N-lim chemostat, doubling time 6 h
[5] = E. coli NCM3722 delta-smpB, growth: N-lim chemostat, doubling time 6 h
[6] = wild type E. coli NCM3722, growth: C-lim chemostat, doubling time 3 h
[7] = wild type E. coli NCM3722, growth: C-lim chemostat, doubling time 6 h
[8] = wild type E. coli NCM3722, growth: C-lim chemostat, doubling time 12 h
[9] = wild type E. coli NCM3722, growth: N-lim chemostat, doubling time 6 h
[10] = wild type E. coli NCM3722, growth: N-lim chemostat, doubling time 12 h
[11] = wild type E. coli NCM3722, growth: P-lim chemostat, doubling time 12 h
[12] = wild type E. coli NCM3722, growth: P-lim chemostat, doubling time 6 h

| Sequence | total protein half-life in vivo [1] | total protein half-life in vivo [2] | total protein half-life in vivo [3] | total protein half-life in vivo [4] | total protein half-life in vivo [5] | total protein half-life in vivo [6] | total protein half-life in vivo [7] | total protein half-life in vivo [8] | total protein half-life in vivo [9] | total protein half-life in vivo [10] | total protein half-life in vivo [11] | total protein half-life in vivo [12] |
| --- | --- | --- | --- | --- | --- | --- | --- | --- | --- | --- | --- | --- |
| MRHIFQRLLPRRLWLAGLPCLALLGCVQNHNKPAIDTPAEEKIPVYQLADYLSTECSDIWALQGKSTETNPLYWLRAMDCADRLMPAQSRQQARQYDDGSWQNTFKQGILLADAKITPYERRQLVARIEALSTEIPAQVRPLYQLWRDGQALQLQLAEERQRYSKLQQSSDSELDTLRQQHHVLQQQLELTTRKLENLTDIERQLSTRKPAGNFSPDTPHESEKPAPSTHEVTPDEP [P0AD44] | 6.11 ± 0.099 h | 6.44 ± 0.17 h | 6.18 ± 0.37 h | 6.9 ± 0.22 h | 6.12 ± 0.2 h | 3.34 ± 0.092 h | 6.14 ± 0.27 h | 13.1 ± 0.57 h | 6.28 ± 1 h | 14 ± 1.2 h | 12.2 ± 3.1 h | – |
| MRHSVLFATAFATLISTQTFAADLPGKGITVNPVQSTITEETFQTLLVSRALEKLGYTVNKPSEVDYNVGYTSLASGDATFTAVNWTPLHDNMYEAAGGDKKFYREGVFVNGAAQGYLIDKKTADQYKITNIAQLKDPKIAKLFDTNGDGKADLTGCNPGWGCEGAINHQLAAYELTNTVTHNQGNYAAMMADTISRYKEGKPVFYYTWTPYWVSNELKPGKDVVWLQVPFSALPGDKNADTKLPNGANYGFPVSTMHIVANKAWAEKNPAAAKLFAIMQLPVADINAQNAIMHDGKASEGDIQGHVDGWIKAHQQQFDGWVNEALAAQK [P0AFM2] | – | 4.96 ± 0.067 h | 6.88 ± 1.4 h | 5.41 h | 5.41 ± 0.17 h | 3.5 ± 0.29 h | 6.36 h | 5.21 h | – | 11.2 h | 13.1 h | 6.38 h |
| MRIEEDLKLGFKDVLIRPKRSTLKSRSDVELERQFTFKHSGQSWSGVPIIAANMDTVGTFSMASALASFDILTAVHKHYSVEEWQAFINNSSADVLKHVMVSTGTSDADFEKTKQILDLNPALNFVCIDVANGYSEHFVQFVAKAREAWPTKTICAGNVVTGEMCEELILSGADIVKVGIGPGSVCTTRVKTGVGYPQLSAVIECADAAHGLGGMIVSDGGCTTPGDVAKAFGGGADFVMLGGMLAGHEESGGRIVEENGEKFMLFYGMSSESAMKRHVGGVAEYRAAEGKTVKLPLRGPVENTARDILGGLRSACTYVGASRLKELTKRTTFIRVQEQENRIFNNL | 6.23 ± 0.89 h | 4.46 ± 0.16 h | 4.34 ± 0.1 h | 5.46 ± 0.17 h | 4.22 ± 0.21 h | 2.77 ± 0.19 h | 6.13 ± 0.25 h | 9.9351 ± 0.0054 h | 4.71 ± 0.14 h | 7.56 ± 0.75 h | 11 ± 0.55 h | 6.2 ± 0.3 h |
| MRIFVYGSLRHKQGNSHWMTNAQLLGDFSIDNYQLYSLGHYPGAVPGNGTVHGEVYRIDNATLAELDALRTRGGEYARQLIQTPYGSAWMYVYQRPVDGLKLIESGDWLDRDK [P0AE48] | 5.12 ± 0.42 h | 4.63 ± 0.19 h | 4.95 ± 0.15 h | 5.345 ± 0.014 h | 5 ± 0.3 h | 2.57 ± 0.21 h | 5.316 ± 0.012 h | 8.87 ± 0.3 h | 4.49 ± 0.61 h | 7.76 ± 0.7 h | 11.5 ± 1.6 h | 5.27 ± 0.36 h |
| MRIVTAAVMASTLAVSSLSHAAEVGSGDNWHPGEELTQRSTQSHMFDGISLTEHQRQQMRDLMQQARHEQPPVNVSELETMHRLVTAENFDENAVRAQAEKMANEQIARQVEMAKVRNQMYRLLTPEQQAVLNEKHQQRMEQLRDVTQWQKSSSLKLLSSSNSRSQ [P0AE85] | 2.56 ± 0.11 h | 4.81 h | 1.65 h | > 8 h | 2.394 ± 0.017 h | – | 2.391 ± 0.0025 h | – | – | 3.54 ± 0.086 h | 2.99 h | – |
| MRKFTLNIFTLSLGLAVMPMVEAAPTAQQQLLEQVRLGEATHREDLVQQSLYRLELIDPNNPDVVAARFRSLLRQGDIDGAQKQLDRLSQLAPSSNAYKSSRTTMLLSTPDGRQALQQARLQATTGHAEEAVASYNKLFNGAPPEGDIAVEYWSTVAKIPARRGEAINQLKRINADAPGNTGLQNNLALLLFSSDRRDEGFAVLEQMAKSNAGREGASKIWYGQIKDMPVSDASVSALKKYLSIFSDGDSVAAAQSQLAEQQKQLADPAFRARAQGLAAVDSGMAGKAIPELQQAVRANPKDSEALGALGQAYSQKGDRANAVANLEKALALDPHSSNNDKWNSLLKVNRYWLAIQQGDAALKANNPDRAERLFQQARNVDNTDSYAVLGLGDVAMARKDYPAAERYYQQTLRMDSGNTNAVRGLANIYRQQSPEKAEAFIASLSASQRRSIDDIERSLQNDRLAQQAEALENQGKWAQAAALQRQRLALDPGSVWITYRLSQDLWQAGQRSQADTLMRNLAQQKSNDPEQVYAYGLYLSGHDQDRAALAHINSLPRAQWNSNIQELVNRLQSDQVLETANRLRESGKEAEAEAMLRQQPPSTRIDLTLADWAQQRRDYTAARAAYQNVLTREPANADAILGLTEVDIAAGDKAAARSQLAKLPATDNASLNTQRRVALAQAQLGDTAAAQRTFNKLIPQAKSQPPSMESAMVLRDGAKFEAQAGDPTQALETYKDAMVASGVTTTRPQDNDTFTRLTRNDEKDDWLKRGVRSDAADLYRQQDLNVTLEHDYWGSSGTGGYSDLKAHTTMLQVDAPYSDGRMFFRSDFVNMNVGSFSTNADGKWDDNWGTCTLQDCSGNRSQSDSGASVAVGWRNDVWSWDIGTTPMGFNVVDVVGGISYSDDIGPLGYTVNAHRRPISSSLLAFGGQKDSPSNTGKKWGGVRADGVGLSLSYDKGEANGVWASLSGDQLTGKNVEDNWRVRWMTGYYYKVINQNNRRVTIGLNNMIWHYDKDLSGYSLGQGGYYSPQEYLSFAIPVMWRERTENWSWELGASGSWSHSRTKTMPRYPLMNLIPTDWQEEAARQSNDGGSSQGFGYTARALLERRVTSNWFVGTAIDIQQAKDYAPSHFLLYVRYSAAGWQGDMDLPPQPLIPYADW | 6.16 ± 0.12 h | 6.7 ± 0.36 h | 6.74 ± 0.87 h | 6.13 ± 0.61 h | 5.66 ± 0.14 h | 3.2 ± 0.16 h | 6.39 ± 0.4 h | 11.2 ± 1.1 h | 6.4455 ± 0.00019 h | 13.8 ± 0.91 h | 13.3 ± 0.38 h | 6.24 ± 0.29 h |
